Experimental data: patent US20180017550

What was measured:
[1] = target: human MDM2 (ubiquitin-protein ligase E3 MDM2), cell-free expressed with C-terminal HSV epitope tag and polyhistidine tag, Q00987
[2] = target: human protein kinase A catalytic subunit alpha, cell-free expressed with C-terminal HSV epitope tag and polyhistidine tag, P17612
[3] = target: Human casein kinase II (CK), cell-free expressed with C-terminal HSV epitope tag and polyhistidine tag
[4] = target: human p53 oncoprotein (cellular tumor antigen p53), cell-free expressed from pETBlue-2 with C-terminal HSV epitope tag and polyhistidine tag, P04637

B1: human recombinant ZAP-70 tyrosine kinase (Invitrogen Corporation) (protein)
chain: MPDPAAHLPFFYGSISRAEAEEHLKLAGMADGLFLLRQCLRSLGGYVLSLVHDVRFHHFPIERQLNGTYAIAGGKAHCGPAELCEFYSRDPDGLPCNLRKPCNRPSGLEPQPGVFDCLRDAMVRDYVRQTWKLEGEALEQAIISQAPQVEKLIATTAHERMPWYHSSLTREEAERKLYSGAQTDGKFLLRPRKEQGTYALSLIYGKTVYHYLISQDKAGKYCIPEGTKFDTLWQLVEYLKLKADGLIYCLKEACPNSSASNASGAAAPTLPAHPSTLTHPQRRIDTLNSDGYTPEPARITSPDKPRPMPMDTSVYESPYSDPEELKDKKLFLKRDNLLIADIELGCGNFGSVRQGVYRMRKKQIDVAIKVLKQGTEKADTEEMMREAQIMHQLDNPYIVRLIGVCQAEALMLVMEMAGGGPLHKFLVGKREEIPVSNVAELLHQVSMGMKYLEEKNFVHRDLAARNVLLVNRHYAKISDFGLSKALGADDSYYTARSAGKWPLKWYAPECINFRKFSSRSDVWSYGVTMWEALSYGQKPYKKMKGPEVMAFIEQGKRMECPPECPPELYALMSDCWIYKWEDRPDFLTVEQRMRACYYSLASKVEGPPGSTQKAEAACA
phosphorylation of photo-transferred protein on microarray, anti-phosphotyrosine (RC20) detection [1]: Both kinases heavily phosphorylate the MDM protein
phosphorylation of photo-transferred protein on microarray, anti-phosphotyrosine (RC20) detection [2]: phosphorylates PKA to a very slight, nearly undetectable degree
phosphorylation of photo-transferred protein on microarray, anti-phosphotyrosine (RC20) detection [3]: ZAP-70 does not phosphorylate CK
phosphorylation of photo-transferred protein on microarray, anti-phosphotyrosine (RC20) detection [4]: p53 is not phosphorylated by either kinase
